From patent US20100291638

Tests used:
[1] = tested on: T1, DNA polymerase 3173 (uncultured hot spring virus (Octopus Spring)); conditions: reverse transcription, 60 C 20 min, MgCl2 and MnCl2
T1 sequence: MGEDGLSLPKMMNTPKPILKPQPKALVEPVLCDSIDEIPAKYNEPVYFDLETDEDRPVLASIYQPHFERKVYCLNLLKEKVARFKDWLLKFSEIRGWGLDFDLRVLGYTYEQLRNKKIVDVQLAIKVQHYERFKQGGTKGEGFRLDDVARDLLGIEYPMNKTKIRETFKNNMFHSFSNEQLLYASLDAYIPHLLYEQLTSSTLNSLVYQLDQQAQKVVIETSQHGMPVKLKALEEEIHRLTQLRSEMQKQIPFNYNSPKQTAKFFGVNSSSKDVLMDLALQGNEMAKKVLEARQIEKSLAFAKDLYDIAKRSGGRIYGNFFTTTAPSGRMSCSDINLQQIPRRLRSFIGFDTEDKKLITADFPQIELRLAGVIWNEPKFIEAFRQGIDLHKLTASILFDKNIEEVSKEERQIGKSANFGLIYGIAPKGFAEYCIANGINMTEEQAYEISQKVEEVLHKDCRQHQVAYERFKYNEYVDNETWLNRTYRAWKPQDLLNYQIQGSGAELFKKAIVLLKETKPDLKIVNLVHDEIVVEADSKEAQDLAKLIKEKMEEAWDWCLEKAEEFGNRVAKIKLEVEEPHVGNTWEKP

[2] = target: MMLV reverse transcriptase (Moloney murine leukemia virus) (UniProt P03355); conditions: reverse transcription, manufacturer's conditions
Tth DNA polymerase = Tth DNA polymerase (UniProt P52028); conditions: reverse transcription, manufacturer's conditions
[3] = tested on: T1, DNA polymerase 3173 (uncultured hot spring virus (Octopus Spring)); conditions: Km for primed M13 DNA; 70 C; dNTPs in excess

UniProt P52028, sequence (P52028 whole entry): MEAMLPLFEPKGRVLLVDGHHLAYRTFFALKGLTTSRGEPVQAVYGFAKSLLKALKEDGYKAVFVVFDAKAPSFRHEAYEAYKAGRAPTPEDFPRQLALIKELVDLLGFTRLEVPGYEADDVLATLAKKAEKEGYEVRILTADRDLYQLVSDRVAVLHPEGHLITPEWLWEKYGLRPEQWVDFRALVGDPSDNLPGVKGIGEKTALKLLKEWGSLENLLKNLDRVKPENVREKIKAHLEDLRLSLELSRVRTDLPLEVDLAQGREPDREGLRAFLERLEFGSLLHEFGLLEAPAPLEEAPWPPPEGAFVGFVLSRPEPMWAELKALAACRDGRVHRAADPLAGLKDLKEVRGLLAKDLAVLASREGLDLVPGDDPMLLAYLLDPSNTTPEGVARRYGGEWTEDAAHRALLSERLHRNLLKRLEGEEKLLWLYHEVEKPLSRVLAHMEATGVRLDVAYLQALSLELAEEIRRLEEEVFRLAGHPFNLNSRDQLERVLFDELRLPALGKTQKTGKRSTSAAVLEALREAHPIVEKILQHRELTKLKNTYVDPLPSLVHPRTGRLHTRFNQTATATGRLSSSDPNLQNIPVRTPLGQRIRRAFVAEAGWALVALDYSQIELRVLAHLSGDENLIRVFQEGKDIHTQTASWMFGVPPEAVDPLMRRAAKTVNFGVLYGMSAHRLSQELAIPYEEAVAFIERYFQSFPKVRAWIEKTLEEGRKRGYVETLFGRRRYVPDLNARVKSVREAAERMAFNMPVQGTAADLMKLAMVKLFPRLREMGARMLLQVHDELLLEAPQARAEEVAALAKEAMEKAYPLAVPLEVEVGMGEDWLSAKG

Substance | activity [1] | activity [2] | activity (Tth DNA polymerase) | K half [3]
poly rA:oligo dT | 1.04 nmol dTTP | 1.11 nmol dTTP | 0.802 nmol dTTP | –
primed single-stranded M13 DNA | – | – | – | 5.3 nM
